Residue numbers refer to the chain shown, from its start.

For this experiment, the target named is human IL-21 receptor (human, UniProt Q9HBE5 20-232, limits assumed). Description: KD at 37 C; method and format not stated.
human IL-21 receptor, sequence (Q9HBE5 20-232 limits assumed): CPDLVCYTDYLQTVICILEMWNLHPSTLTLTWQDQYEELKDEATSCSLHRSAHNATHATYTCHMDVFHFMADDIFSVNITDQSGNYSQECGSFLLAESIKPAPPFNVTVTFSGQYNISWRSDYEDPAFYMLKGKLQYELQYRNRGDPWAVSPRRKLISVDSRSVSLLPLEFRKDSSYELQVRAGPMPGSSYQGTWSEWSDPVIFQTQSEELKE

B1: IL-21 v31.23 (ligand)
chain: QGQDRHMIRMRQLIDIVDQLKNYVNDLVPEFLPAPEDVETNCEWSAFSCFQKAQLKSANTGNNERIINVSIKKLKQKPPGGEGGGGGGGEGGCPSCDSYEKKPPKEFLERFKSLLQKMIHQHLSSRTHGSEDS
notes: also called hIL21 v31.23
In turn, B1 displayed a Kd of 6.06 µM.

B2: IL-21 v31.51 (ligand)
chain: B1 chain with R9G, Q76R
notes: also called hIL21 v31.51
Consider B2, for which the Kd stood at 7.73 µM. The Kd values of the last two molecules are within 1.5-fold of each other.

The term Kd denotes a measure of binding affinity in units of concentration. Low readings indicate tighter binding, high ones weaker binding.

(Values after patent US20250339519A1 (ASHER BIOTHERAPEUTICS, published 2025).)
